{"source": "paper PMC3474971", "binders": {"B1": {"name": "ATP aptamer (structured_DNA)", "DNA": "ATAGCGGAGGAAGGATACCTGGGGGAGTATAT"}}, "molecular_target": "thrombin (UniProt P00734;P00734 328-363;364-622)", "test": "dye-displacement fluorescence; YOYO-1 25 nM, aptamer 10 nM; 20 mM Tris-Cl pH 7.5, 300 mM NaCl, 5 mM MgCl2, 10 mM KCl; 25 C; 30 min incubation with target before dye"}
{"binder": "B1", "values": [{"measurement": "binding result", "result": "no binding"}]}
